Experimental data published in publication PMC8222357, “The structure of ORC–Cdc6 on an origin DNA reveals the mechanism of ORC activation by the replication initiator Cdc6” (Nature Communications, 2021).

B1: Orc4, subunit of S. cerevisiae ORC (natural protein)
chain: MTISEARLSPQVNLLPIKRHSNEEVEETAAILKKRTIDNEKCKDSDPGFGSLQRRLLQQLYGTLPTDEKIIFTYLQDCQQEIDRIIKQSIIQKESHSVILVGPRQSYKTYLLDYELSLLQQSYKEQFITIRLNGFIHSEQTAINGIATQLEQQLQKIHGSEEKIDDTSLETISSGSLTEVFEKILLLLDSTTKTRNEDSGEVDRESITKITVVFIFDEIDTFAGPVRQTLLYNLFDMVEHSRVPVCIFGCTTKLNILEYLEKRVKSRFSQRVIYMPQIQNLDDMVDAVRNLLTVRSEISPWVSQWNETLEKELSDPRSNLNRHIRMNFETFRSLPTLKNSIIPLVATSKNFGSLCTAIKSCSFLDIYNKNQLSNNLTGRLQSLSDLELAILISAARVALRAKDGSFNFNLAYAEYEKMIKAINSRIPTVAPTTNVGTGQSTFSIDNTIKLWLKKDVKNVWENLVQLDFFTEKSAVGLRDNATAAFYASNYQFQGTMIPFDLRSYQMQIILQELRRIIPKSNMYYSWTQL
notes: Orc4, S. cerevisiae, as the Orc4 chain of m1; Stood in the assay as a subunit of the whole ORC; written on its own for the contacts seen in the structure; source: purified as part of ORC, as described previously with minor modifications

Tests used:
Test in all cases: cryo-EM structure; ORC first bound to 85 bp ARS1 origin dsDNA, then Cdc6 added (about 1 μM ORC:1.25 μM DNA:6.4 μM Cdc6), 5 mM ATPγS, 5 mM DTT, on ice; no cross-linking agent; maps at 3.3 and 3.6 Å
Details in all cases: both partners purified
[1] = biological target: T1, origin recognition complex (ORC; Orc1-6), S. cerevisiae (S. cerevisiae, UniProt P54784 1-914; P32833 1-620; P54790 1-616; P54791 1-529; P50874 1-479; P38826 …)
T1 construct: Orc1, S. cerevisiae, subunit of ORC; BAH domain disordered in the map; Orc2, S. cerevisiae, subunit of ORC; WHD flexible and not visible in the map; Orc3, S. cerevisiae, subunit of ORC; Orc4, S. cerevisiae, subunit of ORC; Orc5, S. cerevisiae, subunit of ORC; Orc6, S. cerevisiae, subunit of ORC; TFIIB-A domain disordered in the map; also called yeast ORC; source: purified as described previously, …

[2] = biological target: T2, Orc1, subunit of S. cerevisiae ORC (S. cerevisiae, UniProt P54784 1-914)
T2 construct: Orc1, S. cerevisiae, as the Orc1 chain of m1; Stood in the assay as a subunit of the whole ORC; written on its own for the contacts seen in the structure; source: purified as part of ORC, as described previously with minor modifications
T2 sequence: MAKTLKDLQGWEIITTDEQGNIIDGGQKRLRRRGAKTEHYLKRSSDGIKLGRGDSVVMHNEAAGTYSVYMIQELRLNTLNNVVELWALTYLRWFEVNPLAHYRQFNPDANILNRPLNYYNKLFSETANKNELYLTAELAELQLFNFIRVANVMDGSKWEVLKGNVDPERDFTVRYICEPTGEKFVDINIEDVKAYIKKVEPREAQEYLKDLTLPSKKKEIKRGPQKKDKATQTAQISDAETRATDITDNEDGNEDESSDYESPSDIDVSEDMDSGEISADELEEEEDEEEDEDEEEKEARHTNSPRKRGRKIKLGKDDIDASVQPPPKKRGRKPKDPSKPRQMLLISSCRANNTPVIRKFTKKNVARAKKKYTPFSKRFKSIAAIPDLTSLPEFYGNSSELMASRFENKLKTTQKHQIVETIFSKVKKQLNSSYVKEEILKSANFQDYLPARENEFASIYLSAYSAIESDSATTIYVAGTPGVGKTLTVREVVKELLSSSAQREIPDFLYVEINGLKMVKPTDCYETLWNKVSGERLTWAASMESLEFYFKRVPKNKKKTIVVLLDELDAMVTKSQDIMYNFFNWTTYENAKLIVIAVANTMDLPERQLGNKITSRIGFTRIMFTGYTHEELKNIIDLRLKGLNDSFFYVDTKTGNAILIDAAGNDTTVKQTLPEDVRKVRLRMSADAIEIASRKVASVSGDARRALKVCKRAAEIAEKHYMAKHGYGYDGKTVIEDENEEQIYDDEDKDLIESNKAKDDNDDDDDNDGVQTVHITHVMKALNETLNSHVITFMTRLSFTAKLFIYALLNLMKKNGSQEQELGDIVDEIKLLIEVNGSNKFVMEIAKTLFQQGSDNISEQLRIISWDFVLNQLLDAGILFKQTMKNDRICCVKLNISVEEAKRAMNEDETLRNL

[3] = biological target: T3, Orc3, subunit of S. cerevisiae ORC (S. cerevisiae, UniProt P54790 1-616)
T3 construct: Orc3, S. cerevisiae, as the Orc3 chain of m1; Stood in the assay as a subunit of the whole ORC; written on its own for the contacts seen in the structure; source: purified as part of ORC, as described previously with minor modifications
T3 sequence: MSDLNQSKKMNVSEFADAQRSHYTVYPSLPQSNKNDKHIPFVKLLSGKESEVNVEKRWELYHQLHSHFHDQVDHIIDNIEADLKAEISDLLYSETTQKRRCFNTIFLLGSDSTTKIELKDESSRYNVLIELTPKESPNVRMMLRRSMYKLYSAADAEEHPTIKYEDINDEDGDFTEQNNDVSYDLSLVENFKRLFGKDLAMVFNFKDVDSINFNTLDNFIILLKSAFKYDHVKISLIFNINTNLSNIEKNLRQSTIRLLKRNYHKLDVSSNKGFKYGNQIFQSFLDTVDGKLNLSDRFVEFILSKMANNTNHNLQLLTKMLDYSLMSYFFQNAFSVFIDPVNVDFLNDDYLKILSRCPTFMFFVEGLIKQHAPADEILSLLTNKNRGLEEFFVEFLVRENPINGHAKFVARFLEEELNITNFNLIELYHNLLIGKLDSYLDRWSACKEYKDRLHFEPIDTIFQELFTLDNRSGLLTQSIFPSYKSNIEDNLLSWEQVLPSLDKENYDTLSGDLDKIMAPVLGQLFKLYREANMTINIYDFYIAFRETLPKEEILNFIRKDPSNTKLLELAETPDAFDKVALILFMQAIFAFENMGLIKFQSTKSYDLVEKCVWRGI

[4] = biological target: B1

T1 sequence (P32833 whole entry, chain 2 of 2, the tested form may be a part): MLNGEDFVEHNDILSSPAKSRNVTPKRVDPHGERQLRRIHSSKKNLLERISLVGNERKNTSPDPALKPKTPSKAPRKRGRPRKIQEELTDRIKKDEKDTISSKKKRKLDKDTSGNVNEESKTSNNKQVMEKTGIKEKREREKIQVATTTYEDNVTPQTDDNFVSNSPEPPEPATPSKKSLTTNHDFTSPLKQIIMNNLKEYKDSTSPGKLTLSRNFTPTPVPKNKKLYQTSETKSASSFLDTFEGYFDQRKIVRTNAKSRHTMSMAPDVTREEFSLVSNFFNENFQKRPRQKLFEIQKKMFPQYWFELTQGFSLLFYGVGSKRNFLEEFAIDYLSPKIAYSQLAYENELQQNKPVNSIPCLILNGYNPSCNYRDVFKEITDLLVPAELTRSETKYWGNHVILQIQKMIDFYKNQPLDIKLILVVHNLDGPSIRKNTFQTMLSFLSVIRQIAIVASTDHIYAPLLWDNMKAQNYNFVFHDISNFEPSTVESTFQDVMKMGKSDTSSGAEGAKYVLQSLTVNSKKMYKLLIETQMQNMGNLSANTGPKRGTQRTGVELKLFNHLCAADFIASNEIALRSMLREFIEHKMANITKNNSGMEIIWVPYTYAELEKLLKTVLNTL
T1 sequence (P38826 whole entry, chain 6 of 2, the tested form may be a part): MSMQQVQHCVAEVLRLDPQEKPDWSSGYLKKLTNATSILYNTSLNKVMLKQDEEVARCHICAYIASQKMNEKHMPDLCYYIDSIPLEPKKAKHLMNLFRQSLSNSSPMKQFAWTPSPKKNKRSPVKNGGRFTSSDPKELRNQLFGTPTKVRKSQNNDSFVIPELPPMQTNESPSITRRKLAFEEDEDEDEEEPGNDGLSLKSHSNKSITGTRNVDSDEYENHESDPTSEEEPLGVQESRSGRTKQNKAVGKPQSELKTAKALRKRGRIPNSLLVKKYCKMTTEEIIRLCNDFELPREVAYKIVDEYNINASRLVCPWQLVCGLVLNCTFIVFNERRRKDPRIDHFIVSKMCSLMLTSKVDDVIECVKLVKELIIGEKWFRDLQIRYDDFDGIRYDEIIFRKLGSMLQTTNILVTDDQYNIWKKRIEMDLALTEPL

Binder | binding result [1] | binding result [2] | binding result [3] | binding result [4]
Cdc6 (replication initiator), S. cerevisiae, wild type (natural protein, Cdc6, S. cerevisiae; also called yeast Cdc6; source: purified as described previously, with minor modifications (lysis buffer with 500 mM potassium phosphate)) MSAIPITPTKRIRRNLFDDAPATPPRPLKRKKLQFTDVTPESSPEKLQFGSQSIFLRTKALLQKSSELVNLNSSDGALPARTAEYEQVMNFLAKAISEHRSDSLYITGPPGTGKTAQLDMIIRQKFQSLPLSLSTPRSKDVLRHTNPNLQNLSWFELPDGRLESVAVTSINCISLGEPSSIFQKIFDSFQDLNGPTLQIKNMQHLQKFLEPYHKKTTFVVVLDEMDRLLHANTSETQSVRTILELFLLAKLPTVSFVLIGMANSLDMKDRFLSRLNLDRGLLPQTIVFQPYTAEQMYEIVIQKMSSLPTIIFQPMAIKFAAKKCAGNTGDLRKLFDVLRGSIEIYELEKRFLLSPTRGSLNSAQVPLTPTTSPVKKSYPEPQGKIGLNYIAKVFSKFVNNNSTRTRIAKLNIQQKLILCTIIQSLKLNSDATIDESFDHYIKAITKTDTLAPLQRNEFLEICTILETCGLVSIKKTKCKGKTKRFVDKIDVDLDMREFYDEMTKISILKPFLH | binds | binds | – | –
Orc5, subunit of S. cerevisiae ORC (natural protein, Orc5, S. cerevisiae, as the Orc5 chain of m1; Stood in the assay as a subunit of the whole ORC; written on its own for the contacts seen in the structure; source: purified as part of ORC, as described previously with minor modifications) MNVTTPEVAFREYQTNCLASYISADPDITPSNLILQGYSGTGKTYTLKKYFNANPNLHAVWLEPVELVSWKPLLQAIARTVQYKLKTLYPNIPTTDYDPLQVEEPFLLVKTLHNIFVQYESLQEKTCLFLILDGFDSLQDLDAALFNKYIKLNELLPKDSKINIKFIYTMLETSFLQRYSTHCIPTVMFPRYNVDEVSTILVMSRCGELMEDSCLRKRIIEEQITDCTDDQFQNVAANFIHLIVQAFHSYTGNDIFALNDLIDFKWPKYVSRITKENIFEPLALYKSAIKLFLSTDDNLSENGQGESAITTNRDDLENSQTYDLSIISKYLLIASYICSYLEPRYDASIFSRKTRIIQGRAAYGRRKKKEVNPRYLQPSLFAIERLLAIFQAIFPIQGKAESGSLSALREESLMKANIEVFQNLSELHTLKLIATTMNKNIDYLSPKVRWKVNVPWEIIKEISESVHFNISDYFSDIHE | – | – | binds | binds
B1 | – | binds | – | –
